The values that follow come from patent US20230057904A1 (Chugai, published 2023).

The target in assay [1] is ECM. The experiment in a line: ECM binding assay, ECL reaction.
In assay [2] the target is ECM. The experiment in a line: ECM binding assay, ECL reaction, value divided by that of MRA.
For the next assay, the target named is T1, human CLDN4 (human, UniProt O14493 1-209).
T1 construct: also called hCLDN4; hCLDN4/BaF
T1 sequence: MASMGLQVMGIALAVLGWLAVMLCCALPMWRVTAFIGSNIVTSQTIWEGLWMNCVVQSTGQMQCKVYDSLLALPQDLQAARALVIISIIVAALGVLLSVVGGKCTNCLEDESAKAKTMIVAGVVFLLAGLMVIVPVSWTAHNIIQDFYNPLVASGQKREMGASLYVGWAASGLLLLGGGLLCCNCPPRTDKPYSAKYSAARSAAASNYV
The experiment in a line: flow cytometry on hCLDN4/BaF (Ba/F3 transfectant), 15 micro g/ml antibody, Alexa Fluor 488 anti-human IgG; histogram against KLH/TR01. From the text: FIG. 35-1. Binding activity of anti-CLDN6/CD3 bispecific antibodies (CS2201, CS2961, AH05/TR01, and 6PHU3/TR01) to human CLDN family proteins (CLDN3, CLDN4, CLDN6, and CLDN9). Binding activity of anti-CLDN6/CD3 bispecific antibodies to BaF3 transfectants (hCLDN6/BaF, hCLDN3/BaF, hCLDN4/BaF, and hCLDN9/BaF) was examined by flow cytometer in a concentration of 15 micro g/ml, and plotted as histogram. KLH/TR01 was used as a negative control. The specificity of CS2961 to human CLDN6 was highest among the tested antibodies.
(§1) Amino acid sequence are highly conserved among CLDN3, CLDN4, CLDN6 and CLDN9. Thus we examined CLDN6 binding specificity by FACS analysis. hCLDN6/BaF, hCLDN3/BaF, hCLDN4/BaF, and hCLDN9/BaF were incubated with CS2201, CS2961, AH05/TR01 and 6PHU3/TR01 at 15 micro g/ml. KLH/TR01 generated in Example 2-3 was used as a staining control. Binding of each antibody was detected with Alexa Fluor 488-conjugated anti human IgG (Invitrogen). Dead cells were separated by eFlour 780 (Invitrogen) staining.

Assay [3] concerns the target T2, human CLDN3 (human, UniProt O15551 1-220).
T2 construct: also called hCLDN3; hCLDN3/BaF
T2 sequence: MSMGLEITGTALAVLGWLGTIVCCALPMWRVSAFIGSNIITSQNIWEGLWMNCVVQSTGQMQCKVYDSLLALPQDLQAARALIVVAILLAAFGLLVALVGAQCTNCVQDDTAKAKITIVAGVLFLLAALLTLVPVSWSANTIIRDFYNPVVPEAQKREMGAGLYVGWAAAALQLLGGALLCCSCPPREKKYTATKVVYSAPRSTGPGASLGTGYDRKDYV
The assay can be described thus: flow cytometry on hCLDN3/BaF (Ba/F3 transfectant), 15 micro g/ml antibody, Alexa Fluor 488 anti-human IgG; histogram against KLH/TR01. The procedure: as §1

The target in another assay is T3, mouse CLDN9 (mouse, UniProt Q9Z0S7 1-217).
T3 construct: also called mCLDN9; mCLDN9/FS293
T3 sequence: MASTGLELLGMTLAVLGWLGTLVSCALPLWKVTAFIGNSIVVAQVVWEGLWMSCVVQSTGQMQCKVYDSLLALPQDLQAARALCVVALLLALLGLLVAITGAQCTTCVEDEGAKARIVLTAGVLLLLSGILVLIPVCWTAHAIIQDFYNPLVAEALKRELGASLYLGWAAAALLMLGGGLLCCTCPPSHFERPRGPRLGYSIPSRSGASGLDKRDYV
The experiment in a line: flow cytometry, FreeStyle 293-F transfectants expressing mouse CLDN9, anti-human IgG Alexa Fluor 647; MFI. The procedure: (§2) Antibodies were mixed with FreeStyle™ 293-F cells transiently expressed human and mouse CLDN3, 4, 6, and 9 at final concentration of 10 micro g/mL. After 1 hour of incubation, cells were washed by 0.1% BSA containing D-PBS(−), and incubated in 5 micro g/mL of either Goat anti-Human IgG (H+L) Cross-Adsorbed Secondary Antibody, Alexa Fluor 647 (Invitrogen, A21445) or Goat anti-Mouse IgG (H+L) Highly Cross-Adsorbed Secondary Antibody, Alexa Fluor 647 (Invitrogen, A21236), for 1 hour. Cells were then washed with 0.1% BSA containing D-PBS(−), resuspended in 5 micro L of 0.1% BSA containing D-PBS(−), and analyzed by flow cytometer (iQue Screener, intellicyte).

Another assay has as its target T4, mouse CLDN3 (mouse, UniProt Q9Z0G9 1-219).
T4 construct: also called mCLDN3; mCLDN3/FS293
T4 sequence: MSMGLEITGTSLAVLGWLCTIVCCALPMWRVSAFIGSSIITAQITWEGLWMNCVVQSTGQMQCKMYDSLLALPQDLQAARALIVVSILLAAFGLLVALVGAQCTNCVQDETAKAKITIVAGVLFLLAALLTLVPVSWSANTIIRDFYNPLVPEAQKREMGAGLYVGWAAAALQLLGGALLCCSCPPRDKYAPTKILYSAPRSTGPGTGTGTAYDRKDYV
The experiment in a line: flow cytometry, FreeStyle 293-F transfectants expressing mouse CLDN3, anti-human IgG Alexa Fluor 647; MFI. The procedure:
as §2

The target in assay [4] is T2, human CLDN3. The experiment in a line: flow cytometry, FreeStyle 293-F transfectants expressing human CLDN3, anti-human IgG Alexa Fluor 647; MFI. On the procedure: as §2
For a further assay, the target named is T5, mouse CLDN6 (mouse, UniProt Q9Z262 1-219).
T5 construct: also called mCLDN6; mCLDN6/FS293
T5 chain: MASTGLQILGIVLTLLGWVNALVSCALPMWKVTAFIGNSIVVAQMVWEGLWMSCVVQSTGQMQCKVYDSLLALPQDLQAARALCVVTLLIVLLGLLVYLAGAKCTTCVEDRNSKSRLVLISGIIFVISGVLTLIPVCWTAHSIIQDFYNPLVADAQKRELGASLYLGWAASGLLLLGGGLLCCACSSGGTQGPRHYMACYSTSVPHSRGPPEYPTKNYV
The assay can be described thus: flow cytometry, FreeStyle 293-F transfectants expressing mouse CLDN6, 10 micro g/mL antibody, anti-human IgG Alexa Fluor 647; MFI. The procedure:
as §2

As to MRA (antibody), the Luminescence with ECM [1] amounted to 13000. For the same molecule, in the assay with ECM [2], the Luminescence ratio vs MRA stood at 1 fold.

B1: bivalent IgG antibody 25H0021/20L0072 (antibody, V domains shown)
VH: QVQLVESGGGVVQPGRSLRLSCAASGFTFSSLTMSWVRQAPGQGLEWMGTISSGGGRTYYPDSVKGRFTISRDNSKNTLYLQMNSLRAEDTAVYYCARGDYRYDGFAYWGQGTLVTVSS
VL: DIQMTQSPSSLSASVGDRVTITCRASYNIDSYLAWYQQKPGKAPKLLIYASTLLVDGVPSRFSGSRSGTDFTLTISSLQPEDFATYYCQHYYSIPYTFGQGTKLEIK
B1 showed a Luminescence with ECM [1] of 32900. In the assay with ECM [2], the Luminescence ratio vs MRA was 2.52 fold.

B2: bivalent IgG antibody 25H0562/20L0072 (antibody, V domains shown)
VH: QVQLVESGGGVVQPGRSLRLSCAASGFTFSSYTMSWVRQAPGQGLEWMGTISSGGGRTYYPDSVKGRFTISRDNSKNTLYLQMNSLRAEDTAVYYCARGDYRYDGFAMWGQGTLVTVSS
VL: DIQMTQSPSSLSASVGDRVTITCRASYNIDSYLAWYQQKPGKAPKLLIYASTLLVDGVPSRFSGSRSGTDFTLTISSLQPEDFATYYCQHYYSIPYTFGQGTKLEIK
B2: the Luminescence with ECM [1] was 32600. Besides, in the assay with ECM [2], the Luminescence ratio vs MRA came to 2.5 fold.

B3: bivalent IgG antibody 25H0042/20L0072 (antibody, V domains shown)
VH: QVQLVESGGGVVQPGRSLRLSCAASGFTFSSYVMSWVRQAPGQGLEWMGTISSGGGRTYYPDSVKGRFTISRDNSKNTLYLQMNSLRAEDTAVYYCARGDYRYDGFAYWGQGTLVTVSS
VL: DIQMTQSPSSLSASVGDRVTITCRASYNIDSYLAWYQQKPGKAPKLLIYASTLLVDGVPSRFSGSRSGTDFTLTISSLQPEDFATYYCQHYYSIPYTFGQGTKLEIK
Regarding B3, the Luminescence in the assay with ECM [1] was found to be 40400. For the same molecule, the Luminescence ratio vs MRA with ECM [2] is 3.1 fold.

B4: bivalent IgG antibody 25H0322/20L0072 (antibody, V domains shown)
VH: QVQLVESGGGVVQPGRSLRLSCAASGFTFSSYTMSWVRQAPGQGLEWMGTISSGGGRTYYPFSVKGRFTISRDNSKNTLYLQMNSLRAEDTAVYYCARGDYRYDGFAYWGQGTLVTVSS
VL: DIQMTQSPSSLSASVGDRVTITCRASYNIDSYLAWYQQKPGKAPKLLIYASTLLVDGVPSRFSGSRSGTDFTLTISSLQPEDFATYYCQHYYSIPYTFGQGTKLEIK
The molecule B4 had a Luminescence with ECM [1] of 70600. Also, the Luminescence ratio vs MRA with ECM [2] worked out at 5.41 fold.

B5: bivalent IgG antibody 25H0176/20L0072 (antibody, V domains shown)
VH: QVQLVESGGGVVQPGRSLRLSCAASGFTFSSYTMSWVRQAPGQGLEWMGTISSKGGRTYYPDSVKGRFTISRDNSKNTLYLQMNSLRAEDTAVYYCARGDYRYDGFAYWGQGTLVTVSS
VL: DIQMTQSPSSLSASVGDRVTITCRASYNIDSYLAWYQQKPGKAPKLLIYASTLLVDGVPSRFSGSRSGTDFTLTISSLQPEDFATYYCQHYYSIPYTFGQGTKLEIK
As for B5, the Luminescence with ECM [1] stood at 77000. In addition, the Luminescence ratio vs MRA in the assay with ECM [2] came to 5.91 fold.

B6: bivalent IgG antibody 25H0024/20L0072 (antibody, V domains shown)
VH: QVQLVESGGGVVQPGRSLRLSCAASGFTFSSVTMSWVRQAPGQGLEWMGTISSGGGRTYYPDSVKGRFTISRDNSKNTLYLQMNSLRAEDTAVYYCARGDYRYDGFAYWGQGTLVTVSS
VL: DIQMTQSPSSLSASVGDRVTITCRASYNIDSYLAWYQQKPGKAPKLLIYASTLLVDGVPSRFSGSRSGTDFTLTISSLQPEDFATYYCQHYYSIPYTFGQGTKLEIK
In the case of B6, in the assay with ECM [1], the Luminescence is 29600. In addition, the Luminescence ratio vs MRA with ECM [2] amounted to 2.27 fold.

B7: CS2201 (bispecific antibody, V domains shown)
VH 1: QVQLVESGGGVVQPGRSLRLSCAASGFTFSSYTMSWVRQAPGQGLEWMGTISSGGGRTYYPDSVKGRFTISRDNSKNTLYLQMNSLRAEDTAVYYCARGDYRYDGFAYWGQGTLVTVSS
VL 1: DIQMTQSPSSLSASVGDRVTITCRASYNIDSYLAWYQQKPGKAPKLLIYYSTLLVDGVPSRFSGSRSGTDFTLTISSLQPEDFATYYCQHYYSIPYTFGQGTKLEIK
VH 2: QVQLVESGGGVVQPGGSLRLSCAASGFTFSNAWMHWVRQAPGKGLEWVAQIKDKSQNYATYVAESVKGRFTISRADSKNSIYLQMNSLKTEDTAVYYCRYVHYAAGYGVDIWGQGTTVTVSS
VL 2: DIVMTQSPLSLPVTPGEPASISCRSSQPLVHSNRNTYLHWYQQKPGQAPRLLIYKVSNRFSGVPDRFSGSGSGTDFTLKISRVEAEDVGVYYCGQGTQVPYTFGQGTKLEIK
notes: Fab arm exchange, silent Fc; also called 25H/20L0532//TR01
On to B7, for which the binding result with human CLDN4 and with human CLDN3 [3] was “binds” throughout.

B8: AH05/TR01 (bispecific antibody, V domains shown)
VH 1: EVQVEQSGPELVKPGASVKISCKTSGYTFTEYTMHWVKQSHGKSLEWIGGINPNNGNTRYNQKFKGKATLTVDKSSSTAYMELRTLTSEDSAVYYCARCGDFDLFFFFAYWGQGTLVTVSA
VL 1: DIVMTQSQKFMSTSVGDRVSVTCKASQNVGSNVAWYQQKPGQSPEGLISSASSRFSGVPDRFTGSGSGTDFTLTITNVQSEDLAEYFCQQYNSYPFTFGSGTELEIK
VH 2: QVQLVESGGGVVQPGGSLRLSCAASGFTFSNAWMHWVRQAPGKGLEWVAQIKDKSQNYATYVAESVKGRFTISRADSKNSIYLQMNSLKTEDTAVYYCRYVHYAAGYGVDIWGQGTTVTVSS
VL 2: DIVMTQSPLSLPVTPGEPASISCRSSQPLVHSNRNTYLHWYQQKPGQAPRLLIYKVSNRFSGVPDRFSGSGSGTDFTLKISRVEAEDVGVYYCGQGTQVPYTFGQGTKLEIK
notes: IgG format by Fab arm exchange, silent Fc; also called anti-CLDN6/CD3 bispecific antibody AH05/TR01
In the case of B8, the binding result with mouse CLDN9 is listed as “no binding (tested: 10 micro g/mL)”; in the assay with mouse CLDN3, “no binding (tested: 10 micro g/mL)”; in the assay with human CLDN3 [4], “no binding (tested: 10 micro g/mL)”; in the assay with mouse CLDN6, “binds”.

B9: AE3-20/TR01 (bispecific antibody, V domains shown)
VH 1: EVKLVESGGGLVKPGGSLKLSCAASGFTFNSYTMSWVRQTPAKRLEWVVTISSGGGRTYYPDSVKGRFTISRDNARNTLYLQMSSLRSEDTAMYYCIRGDYRYDGFAYWGQGTLVTVST
VL 1: DIQMTQSPASLSASVGETVTITCRASENIDSYLAWYQQKQGKSPQLLVYASTLLVDGVPSRFSGSRSGTQFSLKINSLQSEDVARYYCQHYYSIPYTFGSGTKLEIK
VH 2: QVQLVESGGGVVQPGGSLRLSCAASGFTFSNAWMHWVRQAPGKGLEWVAQIKDKSQNYATYVAESVKGRFTISRADSKNSIYLQMNSLKTEDTAVYYCRYVHYAAGYGVDIWGQGTTVTVSS
VL 2: DIVMTQSPLSLPVTPGEPASISCRSSQPLVHSNRNTYLHWYQQKPGQAPRLLIYKVSNRFSGVPDRFSGSGSGTDFTLKISRVEAEDVGVYYCGQGTQVPYTFGQGTKLEIK
notes: also called anti-CLDN6/CD3 bispecific antibody AE3-20/TR01; AE3.20H/AE3.20L//TR01
B9: the binding result with mouse CLDN3 and in the assay with human CLDN3 [4] was “no binding (tested: 10 micro g/mL)” each time.
